This is an account of results in US20230036060A1 (University of California, published 2023).

In one assay the target is T1, NLS-pMag-CreC.
T1 chain: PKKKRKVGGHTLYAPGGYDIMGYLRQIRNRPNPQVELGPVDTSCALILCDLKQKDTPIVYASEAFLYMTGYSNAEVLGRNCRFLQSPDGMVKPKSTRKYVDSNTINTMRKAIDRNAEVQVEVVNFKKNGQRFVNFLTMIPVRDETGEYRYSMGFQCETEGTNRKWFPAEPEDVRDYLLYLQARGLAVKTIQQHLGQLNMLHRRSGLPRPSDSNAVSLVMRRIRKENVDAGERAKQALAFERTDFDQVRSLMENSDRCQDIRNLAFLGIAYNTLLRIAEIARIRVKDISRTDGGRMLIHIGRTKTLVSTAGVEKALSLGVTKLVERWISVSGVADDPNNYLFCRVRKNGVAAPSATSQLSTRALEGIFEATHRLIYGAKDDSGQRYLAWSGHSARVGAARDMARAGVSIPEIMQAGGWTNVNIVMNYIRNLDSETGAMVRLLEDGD
In words: cell-based or functional assay.

For assay [1], the target named is T2, CD38 on CD38+ Toledo Target cells (UniProt P28907 1-300, limits assumed).
T2 construct: whole, on cells
As to the kind of experiment: flow cytometry, Jurkat T cells carrying the receptor with Toledo Target cells.

B1: ERT2-CreN-nMag (other)
chain: MAGDMRAANLWPSPLMIKRSKKNSLALSLTADQMVSALLDAEPPILYSEYDPTRPFSEASMMGLLTNLADRELVHMINWAKRVPGFVDLTLHDQVHLLECAWLEILMIGLVWRSMEHPVKLLFAPNLLLDRNQGKCVEGMVEIFDMLLATSSRFRMMNLQGEEFVCLKSIILLNSGVYTFLSSTLKSLEEKDHIHRVLDKITDTLIHLMAKAGLTLQQQHQRLAQLLLILSHIRHMSNKGMEHLYSMKCKNVVPLYDLLLEAADAHRLHAPTSRGGASVEETDQSHLATAGSTSSHSLQKYYITGEAEGFPATAVDNLLTVHQNLPALPVDATSDEVRKNLMDMFRDRQAFSEHTWKMLLSVCRSWAAWCKLNGTHTLYAPGGYDIMGYLDQIGNRPNPQVELGPVDTSCALILCDLKQKDTPIVYASEAFLYMTGYSNAEVLGRNCRFLQSPDGMVKPKSTRKYVDSNTINTMRKAIDRNAEVQVEVVNFKKNGQRFVNFLTMIPVRDETGEYRYSMGFQCETE
For the molecule B1, the “fold increase in recombined TamPA-Cre+ CAR Reporter Jurkat T cells, Light+4-OHT against Dark+4-OHT” value with NLS-pMag-CreC stood at 27.1 fold.

B2: myc-α-CD38-Receptor (receptor)
chain: SEQKLISEEDLDIQLTQSSSSFSVSLGDRVTITCKASEDIYNRLAWYQQKPGNAPRLLISGATSLETGVPSRFSGSGSGKDYTLSITSLQTEDVATYYCQQYWSTPTFGGGTKLEIKRADAAPTVSIFPPSGGGGSGGGGSGGGGSGGGGSQVQLKQSGPSLVQPSQRLSITCTVSGFSLISYGVHWVRQSPGKGLEWLGVIWRGGSTDYNAAFMSRLSITKDNSKSQVFFKMNSLQADDTAIYFCAKTLITTGYAMDYWGQGTSVTVSSAAAIEVMYPPPYLDNEKSNGTIIHVKGKHLCPSPLFPGPSKPFWVLVVVGGVLACYSLLVTVAFIIFWVRSKRS
notes: Non-signalling anchoring receptor with myc tag, expressed on Jurkat T cells; also called c-myc-tagged α-CD38 Receptor
In the case of B2, in assay [1], the binding result is listed as “binds”.
